For orientation: EC50 means the concentration at which the effect is half-maximal.

*1 amine or outer side, *2 acyl side, *3 side chain or, on linkers, in order; H or OH if unused. Where a SMILES comes first, the peptide text is derived from it. Primed or numbered codes have the meaning given here. Where no end group is shown, it is not given here. [ ]: non-standard residue; d: D form. The star is where a group is joined. Pqa = 4-oxo-6-(1-piperazinyl)-3(4H)-quinazoline-acetic acid (CAS 889958-08-1), O=C(Cn1cnc2ccc(N3CCN([*:1])CC3)cc2c1=O)[*:2]; Pqa″ = 4-oxo-6-(1-piperazinyl)-3(4H)-quinazoline-acetic acid, O=C(Cn1cnc2ccc(N3CCN([*:1])CC3)cc2c1=O)[*:2]; Tyr(2,6-F2) = N[C@@H](Cc1c(F)cc(O)cc1F)C(=O)O; NMeR = CN[C@@H](CCCNC(=N)N)C(=O)O; Piv = CC(C)(C)C(=O)*; Bz = O=C(c1ccccc1)*

Consider 26 compounds from patent US20130280279A1, “PHARMACEUTICAL COMPOSITION OF A COMPLEX OF AN ANTI-DIG ANTIBODY AND DIGOXIGENIN THAT IS CONJUGATED TO A PEPTIDE” (HOFFMANN-LA ROCHE INC., priority 2011, published 2013).

In the first assay the target is T1, Y2R (Homo sapiens, UniProt P49146).
T1 sequence (P49146 1-381): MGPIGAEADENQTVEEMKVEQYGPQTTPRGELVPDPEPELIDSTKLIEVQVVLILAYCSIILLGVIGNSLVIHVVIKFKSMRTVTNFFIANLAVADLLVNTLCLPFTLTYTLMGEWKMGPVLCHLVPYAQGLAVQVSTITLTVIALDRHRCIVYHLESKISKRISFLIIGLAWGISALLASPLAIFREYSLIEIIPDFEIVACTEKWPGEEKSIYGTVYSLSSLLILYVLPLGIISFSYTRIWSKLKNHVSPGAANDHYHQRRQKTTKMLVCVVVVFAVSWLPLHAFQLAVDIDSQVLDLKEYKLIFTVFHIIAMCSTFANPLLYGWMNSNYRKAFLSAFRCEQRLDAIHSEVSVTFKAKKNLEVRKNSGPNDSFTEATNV
Assay: not given
The following applies: values of WO 2007/065808; read-out: Y2R EC50 (nM) cAMP; cited from earlier work.
On to “Ac-IK-Pqa-RHYLNWVTRQ(N-methyl)R(2-6 di F)Y (Ac-IK[Pqa]RHYLNWVTRQ[NMeR][Tyr(2,6-F2)]) [Example 27]”, for which the EC50 is 0.07 nM.

As to “Adamtyl-IK-Pqa-RHYLNWVTRQ(N-methyl)RY (adamantyl-IK[Pqa]RHYLNWVTRQ[NMeR]Y; ends and bridges not checked) [Example 33]”, the EC50 is 2.9 nM.

Take “Benzoyl-IK-Pqa-RHYLNWVTRQ(N-methyl)RY (Bz-IK[Pqa]RHYLNWVTRQ[NMeR]Y; ends and bridges not checked) [Example 32]”: the EC50 is 0.66 nM.

Turning to “Cyclohexyl-IK-Pqa-RHYLNWVTRQ(N-methyl)RY (cyclohexyl-IK[Pqa]RHYLNWVTRQ[NMeR]Y; ends and bridges not checked) [Example 31]”, the EC50 was 1.37 nM.

Turning to “IK-P qa-RHYLNLVTRQ (N-methyl)R(2,3.4,5,6-Penta-F)Phe [Example 18]”, the half-maximal effective concentration (EC50) is 2.5 nM.

On to “IK-Pqa-RHYLNLVTRQ (N-methyl)R(3-5 di F)Y [Example 8]”, for which the EC50 was 0.36 nM.

As to “IK-Pqa-RHYLNLVTRQ(N-methyl)R(1)Nal [Example 22]”, the EC50 is 1.14 nM.

As for “IK-Pqa-RHYLNLVTRQ(N-methyl)R(2)Nal [Example 23]”, the EC50 was 2.4 nM.

“IK-Pqa-RHYLNLVTRQ(N-methyl)R(2-6 di F)Y [Example 9]”: the EC50 is 0.19 nM.

With “IK-Pqa-RHYLNLVTRQ(N-methyl)R(3-F)Phe [Example 17]”, the concentration for a half-maximal effect (EC50) is 0.75 nM.

As for “IK-Pqa-RHYLNLVTRQ(N-methyl)R(3.4-diC1)Phe [Example 19]”, the concentration giving a half-maximal response (EC50) is 1.47 nM.

On to “IK-Pqa-RHYLNLVTRQ(N-methyl)R(4-CF3)Phe [Example 16]”, for which the concentration giving a half-maximal response (EC50) is 3.55 nM.

As for “IK-Pqa-RHYLNLVTRQ(N-methyl)R(m-)Y [Example 6]”, the EC50 is 1.5 nM.

With “IK-Pqa-RHYLNLVTRQ(N-methyl)RCha [Example 20]”, the 50% effective concentration (EC50) was 0.5 nM.

For “IK-Pqa-RHYLNLVTRQ(N-methyl)RF [Example 12]”, the EC50 is 0.69 nM.

On to “IK-Pqa-RHYLNLVTRQ(N-methyl)RF(O—CH3) [Example 11]”, for which the EC50 is 0.55 nM.

Take “IK-Pqa-RHYLNLVTRQ(N-methyl)RW (IK[Pqa]RHYLNLVTRQ[NMeR]W; ends and bridges not checked) [Example 21]”: the concentration giving a half-maximal response (EC50) is 1.06 nM.

In the case of “IK-Pqa-RHYLNLVTRQ(N-methyl)RY [Example 5]”, the EC50 was 0.42 nM.

On to “IK-Pqa-RHYLNLVTRQR-C-α-Me-Tyr [Example 24]”, for which the EC50 is 1.35 nM.

For the compound “IK-Pqa-RHYLNWVTRQ(N-methyl)RY (IK[Pqa]RHYLNWVTRQ[NMeR]Y; ends and bridges not checked) [Example 25]”, the EC50 is 0.25 nM.

On to “INle-Pqa-RHYLNWVTRQ(N-methyl)RY (IXXRHYLNWVTRQRY; Nle, Pqa linker, N-methyl Arg) [Example 26]”, for which the concentration giving a half-maximal response (EC50) is 0.108 nM.

As for “Pentyl-IK-Pqa-RHYLNWVTRQ(N-methyl)RY (Pentyl-IK[Pqa″]RHYLNWVTRQ[NMeR]Y) [Example 29]”, the EC50 is 0.51 nM.

For “Trimetylacetyl-IK-Pqa-RHYLNWVTRQ(N-methyl)RY (Piv-IK[Pqa″]RHYLNWVTRQ[NMeR]Y) [Example 30]”, the EC50 is 0.26 nM.

The subject of the next assay is H322M cells. As to the kind of experiment: CytoTox-Glo cytotoxicity assay. The note with it: CytoTox-Glo. It is filed as cell-based, human. On the procedure: To evaluate whether additions or alterations of the peptide Melittin, FALLv1 and FALLv2 by digoxygenin alters its biological activity, we performed in vitro assays. As these peptides are cytotoxic, their biological activity can easily be analyzed by monitoring the number of dead cells. To measure this number, the CytoTox-Glo assay (Promega Madison, WI) was used. Table 2 lists results of these CytoTox-Glo-assays that were performed to assess the biological activity of the Melittin, Fallv1 and Fallv2 peptides and their DIG-modified variants. For these assays, H322M cells were seeded at a density of 15.000 cells per well in 96 well plates. The cells were incubated for 24 hours at 37° C., 5% CO2 and 85% humidity in RPMI with 10% FCS, Na+ Pyrovate, L-Glutamine and NEAA mix. The peptide and it's DIG-modified variant were then added to the cells in the concentrations indicated. The cells were incubated for further 48 hours. After this period, the cells were treated with the CytoTox-Glo-assay reagent according to the manufacturers instructions. In brief, this assay detects dead cells via the presence of a protease in the medium that cleaves a […] peptide in the reagent. The luminescence of this assay therefore represents dead cells. The 96 well plates were then analyzed in a InfiniteF200 luminescence reader (Tecan Austria, Groding). […] Not only covalent coupling to haptens, but also complexation of peptides to large antibody molecules may influence their biological activity. Because IgG-derived molecules are large proteins (10-40 fold the size of peptides), it cannot a priori be excluded that such molecules may sterically hinder accessibility of peptide and therefore interfere with biological activity. To address this topic, we analyzed the in vitro activity of peptide-antibody complexes for the cytotoxic peptides FALLv1 and Fam5b. Again, we made use of the fact that these peptide are cytotoxic towards tumor cell lines and therefore tested their functionality in cytotoxicity and viability assays as described above. […] Moreover, utilizing bispecific antibodies for targeting such peptides to tumor cells, we could show increased peptide-mediated cytotoxicity towards targeted cells compared to nontargeted cells (as shown in PCT/EP2010/004051).
Take `CC[C@H](C)[C@H](NC(=O)[C@H](CCCCN)NC(=O)[C@H](CCC(=O)O)NC(=O)[C@H](CCCCN)NC(=O)[C@H](CO)NC(=O)[C@H](CCCCN)NC(=O)[C@H](CCCNC(=N)N)NC(=O)[C@H](Cc1ccccc1)NC(=O)[C@H](Cc1ccccc1)NC(=O)[C@H](CC(=O)O)NC(=O)CNC(=O)[C@H](CC(C)C)NC(=O)[C@H](CC(C)C)NC(=O)[C@H](C)NC(=O)[C@@H](N)Cc1ccccc1)C(=O)NCC(=O)N[C@@H](CCCCN)C(=O)N[C@@H](CCC(=O)O)C(=O)N[C@@H](Cc1ccccc1)C(=O)N[C@@H](CCCCN)C(=O)N[C@@H](CCCNC(=N)N)C(=O)N[C@H](C(=O)N[C@H](C(=O)N[C@@H](CCC(N)=O)C(=O)N[C@@H](CCCNC(=N)N)C(=O)N[C@H](C(=O)N[C@@H](CCCCN)C(=O)N[C@@H](CC(=O)O)C(=O)N[C@@H](Cc1ccccc1)C(=O)N[C@@H](CC(C)C)C(=O)N[C@@H](CCCNC(=N)N)C(=O)N[C@@H](CC(N)=O)C(=O)N[C@@H](CC(C)C)C(=O)N[C@H](C(=O)N1CCC[C@H]1C(=O)N[C@@H](CCCNC(=N)N)C(=O)N[C@H](C(=O)N[C@@H](CCC(=O)O)C(=O)N[C@@H](CO)C(N)=O)[C@@H](C)O)C(C)C)[C@@H](C)CC)C(C)C)[C@@H](C)CC` [FALLv1]: the “activity upon conjugation to digoxygenin” value was “similarly retained”.

As for `CC[C@H](C)[C@H](NC(=O)[C@H](CCCCN)NC(=O)[C@H](CCC(=O)O)NC(=O)[C@H](CCCCN)NC(=O)[C@H](CO)NC(=O)[C@H](CCCCN)NC(=O)[C@H](CCCNC(=N)N)NC(=O)[C@H](Cc1ccccc1)NC(=O)[C@H](Cc1ccccc1)NC(=O)[C@H](CC(=O)O)NC(=O)CNC(=O)[C@H](CC(C)C)NC(=O)[C@H](CC(C)C)NC(=O)[C@H](C)NC(=O)[C@H](Cc1ccccc1)NC(=O)[C@H](CCCNC(=N)N)NC(=O)[C@H](CCCCN)NC(=O)[C@@H](N)CC(N)=O)C(=O)NCC(=O)N[C@@H](CCCCN)C(=O)N[C@@H](CCC(=O)O)C(=O)N[C@@H](Cc1ccccc1)C(=O)N[C@@H](CCCCN)C(=O)N[C@@H](CCCNC(=N)N)C(=O)N[C@H](C(=O)N[C@H](C(=O)N[C@@H](CCC(N)=O)C(=O)N[C@@H](CCCNC(=N)N)C(=O)N[C@H](C(=O)N[C@@H](CCCCN)C(=O)N[C@@H](CC(=O)O)C(=O)N[C@@H](Cc1ccccc1)C(=O)N[C@@H](CC(C)C)C(=O)N[C@@H](CCCNC(=N)N)C(=O)N[C@@H](CC(N)=O)C(=O)N[C@@H](CC(C)C)C(=O)N[C@H](C(=O)N1CCC[C@H]1C(=O)N[C@@H](CCCNC(=N)N)C(N)=O)C(C)C)[C@@H](C)CC)C(C)C)[C@@H](C)CC` [FALLv2] (H-NKRFALLGDFFRKSKEKIGKEFKRIVQRIKDFLRNLVPR-NH2; N-terminus and C-terminus assumed), the “activity upon conjugation to digoxygenin” value was “similarly retained”.

The same assay, now with this note: cytotoxicity and viability assays, tumor cell lines.
For `CC[C@H](C)[C@H](NC(=O)[C@H](CCCCN)NC(=O)[C@H](CCC(=O)O)NC(=O)[C@H](CCCCN)NC(=O)[C@H](CO)NC(=O)[C@H](CCCCN)NC(=O)[C@H](CCCNC(=N)N)NC(=O)[C@H](Cc1ccccc1)NC(=O)[C@H](Cc1ccccc1)NC(=O)[C@H](CC(=O)O)NC(=O)CNC(=O)[C@H](CC(C)C)NC(=O)[C@H](CC(C)C)NC(=O)[C@H](C)NC(=O)[C@@H](N)Cc1ccccc1)C(=O)NCC(=O)N[C@@H](CCCCN)C(=O)N[C@@H](CCC(=O)O)C(=O)N[C@@H](Cc1ccccc1)C(=O)N[C@@H](CCCCN)C(=O)N[C@@H](CCCNC(=N)N)C(=O)N[C@H](C(=O)N[C@H](C(=O)N[C@@H](CCC(N)=O)C(=O)N[C@@H](CCCNC(=N)N)C(=O)N[C@H](C(=O)N[C@@H](CCCCN)C(=O)N[C@@H](CC(=O)O)C(=O)N[C@@H](Cc1ccccc1)C(=O)N[C@@H](CC(C)C)C(=O)N[C@@H](CCCNC(=N)N)C(=O)N[C@@H](CC(N)=O)C(=O)N[C@@H](CC(C)C)C(=O)N[C@H](C(=O)N1CCC[C@H]1C(=O)N[C@@H](CCCNC(=N)N)C(=O)N[C@H](C(=O)N[C@@H](CCC(=O)O)C(=O)N[C@@H](CO)C(N)=O)[C@@H](C)O)C(C)C)[C@@H](C)CC)C(C)C)[C@@H](C)CC` [FALLv1], the “biological activity of digoxigenated peptide complexed with digoxigenin binding antibody derivatives” value is reported as “retain their biological activities”.

For “QHRYQQLGAGLKVLFKKTHRILRRLFNLAK (listed as Homo sapiens) [Fam5b]”, the “biological activity of digoxigenated peptide complexed with digoxigenin binding antibody derivatives” value is on record as “retain their biological activities”.
